Measured values as given in the supplement of paper PMC7877785.
± gives the uncertainty stated by the source.

Assay: self-splicing fitness, log relative to wild type (ln ratio); higher = more splicing; Tetrahymena group I intron in knt gene, E. coli kanamycin selection, DiMSum; sequences stand for … in CUCUCU…GGAGGGAAAAGUUAUCAGGCAUGCACCUGGUAGCUAGUCUUUAAACCAAUAGAUUGCAUCGGUUUAAAAGGCAAGACCGUCAAAUUGCGGGAAAGGGGUCAACAGCCGUUCAGUACCAAGUCUCAGGGGAAACUUUGAGAUGGCCUUGCAAAGGGUAUGGUAAUAAGCUGACGGACAUGGUCCUAACCACGCAGCCAAGUCCUAAGUCAACAGAUCUUCUGUUGAUAUGGAUGCAGUUCACAGACUAAAUGUCGGUCGGGGAAGAUGUAUUCUUCUCAUAAGAUAUAGUCGGACCUCUCCUUAAUGGGAGCUAGCGGAUGAAGUGAUGCAACACUGGAGCCGCUGGGAACUAAUUUGUAUGCGAAAGUAUAUUGAUUAGUUUUGGAGUACUCGUGGUCG
In short: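 Pooled colonies went to amplicon sequencing on an Illumina HiSeq 2500 after six replicate transformations. The plates were LB agar with 100 μg/mL carbenicillin, 50 μM IPTG and 0.2% rhamnose, with or without 25 μg/mL kanamycin, incubated overnight at 37°C or 30°C. The E. coli BL21(DE3) library had all eight P1ex-region intron nucleotides randomised, the intron placed in the knt kanamycin-resistance gene on pET-22b(+). DiMSum fitness is the error-weighted combination of replicate fold changes, kanamycin against none, normalised to wild type.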

Sequence | self-splicing fitness (ln) (30 °C) | self-splicing fitness (ln) (37 °C)
GAACAGCAAUAUUACGGGCA | -0.822 ± 0.096 | -0.223 ± 0.093
GAACAGCAAUAUUACGGGUA | -1.54 ± 0.07 | -1.32 ± 0.076
GAACAGCAAUAUUACGUAGU | -1.55 ± 0.06 | -0.106 ± 0.075
GAACAGCAAUAUUACGUCCG | -1.5 ± 0.13 | -0.784 ± 0.17
GAACAGCAAUAUUACGUCGG | -2.64 ± 0.16 | -1.85 ± 0.28
GAACAGCAAUAUUACGUCGU | -1.5 ± 0.065 | -0.479 ± 0.078
GAACAGCAAUAUUACGUUGC | -3.47 ± 0.19 | -3.4 ± 0.29
GAAGAGCAAUAUUACGAAAU | -3.79 ± 0.24 | -1.95 ± 0.23
GAAGAGCAAUAUUACGACUA | -2.15 ± 0.29 | -1.92 ± 0.24
GAAGAGCAAUAUUACGAUCC | -1.84 ± 0.39 | –
GAAGAGCAAUAUUACGCAGG | -1.89 ± 0.32 | –
GAAGAGCAAUAUUACGCCAC | -3.28 ± 0.41 | -2.48 ± 0.41
GAAGAGCAAUAUUACGCGAG | -2.82 ± 0.17 | -2.16 ± 0.23
GAAGAGCAAUAUUACGCGGU | -2.63 ± 0.14 | -2.55 ± 0.25
GAAGAGCAAUAUUACGCGUC | -2.98 ± 0.42 | -2.5 ± 0.48
GAAGAGCAAUAUUACGGACA | -1.14 ± 0.24 | 0.342 ± 0.24
GAAGAGCAAUAUUACGGCAC | -1.31 ± 0.12 | -0.934 ± 0.16
GAAGAGCAAUAUUACGUAAG | -3.39 ± 0.21 | -1.5 ± 0.16
GAAGAGCAAUAUUACGUACA | -3.17 ± 0.2 | -2.7 ± 0.18
GAAGAGCAAUAUUACGUAGG | -3.14 ± 0.33 | -1.99 ± 0.19
GAAGAGCAAUAUUACGUCUA | -1.86 ± 0.13 | -1.01 ± 0.13
GAAGAGCAAUAUUACGUGAG | -2.97 ± 0.19 | -1.11 ± 0.22
GAAGAGCAAUAUUACGUUUC | -2.8 ± 0.14 | -2.74 ± 0.22
GAAUAGCAAUAUUACGAGAU | -3.86 ± 0.23 | -1.22 ± 0.14
GAAUAGCAAUAUUACGAGCC | -1.48 ± 0.17 | 0.00455 ± 0.17

Sequence | self-splicing fitness (ln) (30 °C) | self-splicing fitness (ln) (37 °C)
GAAUAGCAAUAUUACGAGCU | -1.21 ± 0.081 | -0.335 ± 0.1
GAAUAGCAAUAUUACGAUCU | 0.384 ± 0.078 | -0.286 ± 0.079
GAAUAGCAAUAUUACGCAAC | -2.63 ± 0.21 | -1.77 ± 0.3
GAAUAGCAAUAUUACGCCAA | -2.44 ± 0.23 | -1.39 ± 0.16
GAAUAGCAAUAUUACGGAAC | -2.37 ± 0.16 | -0.0927 ± 0.15
GAAUAGCAAUAUUACGGAAU | -2.69 ± 0.17 | -1.66 ± 0.2
GAAUAGCAAUAUUACGGAUC | -0.118 ± 0.058 | -0.207 ± 0.073
GAAUAGCAAUAUUACGGCAA | -0.403 ± 0.14 | -0.118 ± 0.14
GAAUAGCAAUAUUACGGCAU | -0.386 ± 0.065 | -0.0278 ± 0.083
GAAUAGCAAUAUUACGGUCA | -0.00851 ± 0.072 | -0.154 ± 0.077
GAAUAGCAAUAUUACGGUGU | -3 ± 0.13 | -1.58 ± 0.14
GAAUAGCAAUAUUACGUAGC | -3.4 ± 0.17 | -1.1 ± 0.12
GAAUAGCAAUAUUACGUCAA | -2.1 ± 0.14 | -1.95 ± 0.13
GAAUAGCAAUAUUACGUCAG | -3.69 ± 0.31 | -3.11 ± 0.4
GAAUAGCAAUAUUACGUCUU | -0.449 ± 0.059 | 0.342 ± 0.074
GAAUAGCAAUAUUACGUGUA | -1.82 ± 0.12 | -1.49 ± 0.13
GACAAGCAAUAUUACGAAGU | -4.61 ± 0.27 | -2.18 ± 0.14
GACAAGCAAUAUUACGACAA | -0.668 ± 0.11 | -0.951 ± 0.1
GACAAGCAAUAUUACGACCG | -0.672 ± 0.21 | -0.326 ± 0.34
GACAAGCAAUAUUACGACUU | -0.00142 ± 0.071 | 0.381 ± 0.088
GACAAGCAAUAUUACGAUCA | 0.0763 ± 0.12 | -0.0166 ± 0.15
GACAAGCAAUAUUACGCACA | -0.149 ± 0.086 | -0.296 ± 0.11
GACAAGCAAUAUUACGCAGA | -3.04 ± 0.18 | -1.83 ± 0.14
GACAAGCAAUAUUACGCAGG | -3 ± 0.13 | -1.71 ± 0.13
GACAAGCAAUAUUACGCGAC | -1.52 ± 0.15 | -1.63 ± 0.19

Sequence | self-splicing fitness (ln) (30 °C) | self-splicing fitness (ln) (37 °C)
GACAAGCAAUAUUACGCGCC | -2.58 ± 0.18 | -1.08 ± 0.21
GACAAGCAAUAUUACGCUAC | -3.62 ± 0.31 | -2.54 ± 0.23
GACAAGCAAUAUUACGGAAA | -2.13 ± 0.2 | -2 ± 0.23
GACAAGCAAUAUUACGGACC | -1.32 ± 0.1 | -0.785 ± 0.11
GACAAGCAAUAUUACGGAUG | -2.92 ± 0.11 | -1.75 ± 0.12
GACAAGCAAUAUUACGGAUU | -2.16 ± 0.076 | -0.656 ± 0.076
GACAAGCAAUAUUACGGCGG | -3.27 ± 0.29 | -1.87 ± 0.18
GACAAGCAAUAUUACGGUAC | -2.81 ± 0.13 | -2.64 ± 0.16
GACAAGCAAUAUUACGGUAG | -1.84 ± 0.098 | -0.222 ± 0.092
GACAAGCAAUAUUACGGUGC | -2.77 ± 0.21 | -1.63 ± 0.24
GACAAGCAAUAUUACGUCAC | -2.9 ± 0.23 | -2.75 ± 0.29
GACAAGCAAUAUUACGUCCA | -2.8 ± 0.14 | -1.42 ± 0.13
GACAAGCAAUAUUACGUCCG | -1.98 ± 0.27 | -2.47 ± 0.28
GACAAGCAAUAUUACGUCGU | -3.44 ± 0.14 | -2.24 ± 0.11
GACAAGCAAUAUUACGUGGU | -3.63 ± 0.11 | -2.76 ± 0.12
GACAAGCAAUAUUACGUUUG | -2.88 ± 0.094 | -2.64 ± 0.13
GACCAGCAAUAUUACGAAAA | -2.05 ± 0.12 | -0.391 ± 0.11
GACCAGCAAUAUUACGAAAC | -1.43 ± 0.099 | 0.296 ± 0.11
GACCAGCAAUAUUACGAACA | -0.472 ± 0.091 | 0.313 ± 0.081
GACCAGCAAUAUUACGAAUA | -1.74 ± 0.11 | -0.549 ± 0.11
GACCAGCAAUAUUACGACCC | -0.132 ± 0.14 | 0.75 ± 0.18
GACCAGCAAUAUUACGACGU | -0.417 ± 0.064 | 0.321 ± 0.078
GACCAGCAAUAUUACGAGCA | -1.07 ± 0.084 | -0.284 ± 0.096
GACCAGCAAUAUUACGAGCG | -2.08 ± 0.067 | -0.434 ± 0.077
GACCAGCAAUAUUACGAGGU | -2.95 ± 0.12 | -3.04 ± 0.2

Sequence | self-splicing fitness (ln) (30 °C) | self-splicing fitness (ln) (37 °C)
GACCAGCAAUAUUACGAGUU | -3.35 ± 0.1 | -1.5 ± 0.096
GACCAGCAAUAUUACGCACG | -0.677 ± 0.067 | -0.895 ± 0.095
GACCAGCAAUAUUACGCCGC | -3.75 ± 0.32 | –
GACCAGCAAUAUUACGGAGU | -0.646 ± 0.077 | 0.000468 ± 0.092
GACCAGCAAUAUUACGGCCU | -2.51 ± 0.13 | -0.969 ± 0.11
GACCAGCAAUAUUACGGGAG | -0.677 ± 0.053 | -0.0889 ± 0.065
GACCAGCAAUAUUACGUACU | -0.709 ± 0.069 | 0.123 ± 0.082
GACCAGCAAUAUUACGUAGA | 0.284 ± 0.056 | 0.219 ± 0.074
GACCAGCAAUAUUACGUCCA | -1.75 ± 0.095 | -0.749 ± 0.095
GACCAGCAAUAUUACGUCUC | -0.562 ± 0.044 | -0.159 ± 0.064
GACCAGCAAUAUUACGUGCG | -0.787 ± 0.082 | -0.644 ± 0.097
GACCAGCAAUAUUACGUUAA | -1.13 ± 0.093 | -0.35 ± 0.1
GACGAGCAAUAUUACGAAUG | -3.03 ± 0.2 | -2.31 ± 0.22
GACGAGCAAUAUUACGACAU | -2.931 ± 0.021 | -1.99 ± 0.036
GACGAGCAAUAUUACGAGAC | -3.99 ± 0.28 | -1.95 ± 0.28
GACGAGCAAUAUUACGAGCU | -3.27 ± 0.31 | –
GACGAGCAAUAUUACGAGUU | -3.06 ± 0.34 | –
GACGAGCAAUAUUACGAUUC | -1.39 ± 0.11 | -1.47 ± 0.17
GACGAGCAAUAUUACGCAAU | – | -2.74 ± 0.31
GACGAGCAAUAUUACGCAGG | -2.39 ± 0.2 | -1.6 ± 0.26
GACGAGCAAUAUUACGCAGU | -3.48 ± 0.28 | -2.21 ± 0.23
GACGAGCAAUAUUACGCCAG | – | -2.63 ± 0.28
